For the assay, the target named is BoNT/A receptor on mouse brain synaptosomes (mouse).

As a reminder, the IC50 is the concentration at which inhibition is half-maximal. Higher therefore signals a need for much substance. “inactive BoNT/A toxin (formaldehyde-inactivated BoNT/A, Metabiologics, Inc.), unlabeled (from UniProt P0DPI1 2-1296)” registered an IC50 of 13 nM, a percent inhibition of 100% and a percent inhibition at 2.0 µg of 98%.

The record behind these values is patent US20080274480A1.
